# Key:
# [1] = test system: CBCA, THCA, and CBDA production; CBGA residual substrate; assay: In vivo TS activity assay, Example 3 metagenomic CBCAS screen, cultures fed olivetolic acid; assay type: cell-based, S. cerevisiae; conditions: for Mean CBCA / Mean CBDA / Mean THCA: metagenomic CBCAS candidates in S. cerevisiae, secondary screen, quadruplicate; for Mean CBCA / Mean CBDA / Mean THCA / % CBCA / % CBDA / % THCA: fed 1 mM olivetolic acid; for Average CBGA residual substrate: olivetolic acid fed (Table 12); for % CBCA / % CBDA / % THCA: share of terminal cannabinoid product profile
# Description: (§1) An assay to detect TS activity was conducted as follows: each thawed glycerol stock of candidate CBCAS transformants was stamped into a well of YEP+4% dextrose media. Samples were incubated at 30° C. in a shaking incubator for 2 days. A portion of each of the resulting cultures was stamped into a well of YEP+4% galactose+1 mM olivetolic acid (FIG. 1 Structure 6a). Samples were incubated at 20° C. and shaken in a shaking incubator for 4 days. Every 24 hours during those 4 days, 2% galactose and 1 mM olivetolic acid were spiked into the cultures. Sodium citrate buffer adjusted to pH 5.5 was added to each well at a final concentration of 100 mM. Samples were incubated at 20° C. and shaken in a shaking incubator for 2 days. A portion of each of the resulting production cultures was stamped into a well of phosphate buffered saline (PBS). Optical measurements were taken on a plate reader, with absorbance measured at 600 nm and fluorescence at 528 nm with 485 nm excitation. Samples were incubated at 30° C. in a shaking incubator for 2 days. 100% methanol was stamped into the production cultures in half-height deepwell plates. Plates were heat sealed and frozen. Samples were then thawed for 30 min and spun down at 4° C. A portion of the supernatant was stamped into half-area 96 well plates. CBCA, THCA, and CBDA production in the samples was quantified via liquid chromatography-mass spectrometry (LC-MS).
# (§2) To explore whether other putative CBCASs may exist in the broader metagenome, a library of 1072 candidate CBCAS genes was designed using the A. niger CBCAS enzyme identified in Example 1 as a reference. Protein sequences were recoded in silico for expression in S. cerevisiae and synthesized in the integrative yeast expression vector shown in FIG. 5. Each candidate enzyme expression construct was transformed into an S. cerevisiae CEN.PK strain that also expressed a prenyltransferase enzyme capable of catalyzing reaction R^4 in FIG. 2. Strain t616313, expressing GFP, was included in the library screen as a negative control for enzyme activity. Strain t807925, expressing the A. niger enzyme identified in Example 1, was included in the library screen as a positive control for enzyme activity. All candidate enzymes in the library, as well as the enzyme expressed by positive control strain t807925, included an N-terminal MFalpha2 signal peptide (SEQ ID NO: 16) (with a methionine residue added at the N-terminus of the MFalpha2 signal peptide) and a C-terminal HDEL signal peptide (SEQ ID NO: 17).
# The library of candidate CBCAS enzymes was assayed for activity in a primary high-throughput screen using the assay described in Example 1. Production of CBCA, THCA, and/or CBDA in the samples was quantified via LC-MS.
# (§3) Based on results of the primary screen, 70 strains were carried forward to a secondary screen to confirm activity observed in the primary screen. The experimental protocol for the secondary screen was identical to the primary screen, except that additional technical replicates were included per strain, and replicate production cultures for each strain were separately fed 1 mM olivetolic acid or 1 mM divaric acid. All strains were screened in quadruplicate (FIGS. 10A-10C, Tables 10 and 11).
# [2] = test system: CBCVA, THCVA, and CBDVA production; CBGVA residual substrate; assay: In vivo TS activity assay, Example 3 metagenomic CBCAS screen, cultures fed divaric acid; assay type: cell-based, S. cerevisiae; conditions: for Average CBGVA residual substrate: divaric acid fed (Table 12); for Mean CBCVA / Mean CBDVA / Mean THCVA: secondary screen, S. cerevisiae, quadruplicate, LC-MS; for Mean CBCVA / Mean CBDVA / Mean THCVA / % CBCVA / % CBDVA / % THCVA: cultures fed 1 mM divaric acid; for % CBCVA / % CBDVA / % THCVA: share of terminal cannabinoid products
# Description: as §1, §2, §3
Molecule,Mean CBCA [1] [µg/L],Mean CBDA [1] [µg/L],Mean THCA [1] [µg/L],Average CBGA residual substrate [1] [µg/L],% CBCA [1] [%],% CBDA [1] [%],% THCA [1] [%],Average CBGVA residual substrate [2] [µg/L],Mean CBCVA [2] [µg/L],Mean CBDVA [2] [µg/L],Mean THCVA [2] [µg/L],% CBCVA [2] [%],% CBDVA [2] [%],% THCVA [2] [%],percentage of CBCA in product profile compared with the A. niger positive control [1]
t808238 (protein) MWLSTMNGSASRRSDPVSRKIVCDGHASAHEVRTDNEAARDVPSRTAVNKERKQGSGPPGAMQRGFHAAHKPNEMVPQDGPLGRTAQLFRLAPACQSEPTRAPGQPSDLRLRQIPLATEQAARTLARMRPARFTFPYGRAAEDDCYLKKEDEGHDQSHPTSVLVGVPPFTRRCAAAETFKDTRARAPGTQPTDTTSTGASPSWTLSPLLSLSATDDSVPSKMGNGQSTPLQQCLNTVCNGRLGCVAFPSDALYQAAWVKPYNLDVPVTPIAVFKPSSTEDVAGAIKCAVASNVHVQAKSGGHSYANFGLGGQDGELMIDLANLQDFHMDKTSWQATFGAGYRLGDLDKKLQANGNRAIAHGTCPGVGIGGHATIGGLGPMSRMWGSALDHVLSVQVVTADGSIKNASESENSDLFWALRGAGASFGVITKFTVKTHPAPGSVVQYTYKISLGSQAQMAPVYAAWQALAGDPKLDRRFSTLFIAEPLGALITGTFYGTKAEYEATGIAARLPSGGTLDLKLLDWLGSLAHIAEVVGLTLGDIPTSFYGKSLALREEDMLDRTSIDGLFRYMGDADAGTLLWFVIFNSEGGAMADTPAGATAYPHRDKLIMYQSYVIGIPTLTKATRDFADGVHDRVRMGAPSANSTYAGYIDRTLSREAAQEFYWGAQLPRLREVKKAWDPKDVFHNPQSVDPAE,2934.86,0.00,0.00,63815.30,100.00,0.00,0.00,9247.47,1841.90,0.00,282.10,86.72,0.00,13.28,
t808240 (protein) MGNTTSIGVVRDCLTSAVGGVAAHVAFQDTLLYQTSAVKPYNLNVPVTPAAVTYPQSANEVAAIVKCASDYDYKVQARSGGHSFGNFGLGGQNGAIVIDMKHFSQFSMDESTFIATIGPGTTLGNLDTELYNAGNRAMAHGICPSIRTGGHLTVGGLGPTSRQWGLALDHVEEVEVVLANSSVVRASDTQNQDVLFAIKGAAASFGIVTEFKVRTEEAPGLAVRYSYSFNLGTPAEKAKLAKDWQAYIAQENLTWKFSSNLIIFDGQIILEGIFFGSKEEYDKLNLEKKFPTSEPGTVLVITNWLGMIGHALEDTILRLIGDSPTWFYAKSLGFTPNTLIFDSTIDEFFDYIHKANAGTLAWSVMLSLEGGAINAVPKNATAYGHRDVLFWVQIFVVNPLGPISQTTYGFTDGLYNILARGVPESAGHAYLGCPDPKMPDAQRAYWRNNYPRLEELKRDLDPKDIFHNPQGVRVAS,6248.43,0.00,115.70,24393.82,98.18,0.00,1.82,4054.85,4282.13,0.00,888.75,82.81,0.00,17.19,
t808247 (protein) MGNTTSIAAGRDCLVSAVGPAHVTFQDALLYQTTAVDPYNLNIPVTPAAVTYPQSAEEIAAVVKCASDYDYKVQARSGGHSFGNYGLGGQNGAIVVDMKHFSQFSMDESTFVATIGPGTTLGDLDTELYNAGGRAMAHGICPTIRTGGHLTVGGLGPTARQWGLALDHIEEVEVVLANSSIVRASNTQNQDILFAVKGAAASFGIVTEFKVRTQEAPGLAVQYSFTFNLGSPAQKAKLVKDWQAFIAQENLSWKFYSNLVIFDGQIILEGIFFGSKEEYDELDLEKRFPTSEPGTVLVLTDWLGMIGHALEDTILKLVGDTPTWFYAKSLGFTPDTLIPDSAIDDFFDYIHKTNAGTLAWFVTLSLEGGAINSVSEDATAYGHRDVLFWFQVFVVNPLGPISQTTYDFTNGLYDVLAQAVPESAGHAYLGCPDPKMPDAQRAYWRSNLPRLEDLKGDLDPKDTFHNPQGVQVGP,27052.63,420.85,1703.93,0.00,92.72,1.44,5.84,0.00,2651.55,15.16,1783.19,59.59,0.34,40.07,
"Strain t808200: library TS SEQ ID NO: 164, UniProt A0A3F3PQ52, Aspergillus welwitschiae (protein) MGNTTSIAGRDCLISALGGNSALAAFPNELLWTADVHEYNLNLPVTPAAITYPETAEQIAGIVKCASDYDYKVQARSGGHSFGNYGLGGADGAVVVDMKHFTQFSMDDETYEAVIGPGTTLNDVDIELYNNGKRAMAHGVCPTIKTGGHFTIGGLGPTARQWGLALDHVEEVEVVLANSSIVRASNTQNQDVFFAVKGAAANFGIVTEFKVRTEPAPGLAVQYSYTFNLGSTAEKAQFVKDWQSFISAKNLTRQFYNNMVIFDGDIILEGLFFGSKEQYDALGLEDHFAPKNPGNILVLTDWLGMVGHALEDTILKLVGNTPTWFYAKSLGFRQDTLIPSAGIDEFFEYIANHTAGTPAWFVTLSLEGGAINDIAEDATAYAHRDVLFWVQLFMVNPLGPISDTTYEFTDGLYDVLARAVPESVGHAYLGCPDPRMEDAQQKYWRTNLPRLQELKEELDPKNTFHHPQGVMPA",,,,,,,,,,,,,,,higher percentage of CBCA
t808237 (protein) MGNTTSIAGRDCLVSALGGNAGLVAFQDQLLYQTTAVHEYNLNIPVTPAAVTYPETAEQIAAVVKCASEYDYKVQARSGGHSFGNYGLGGADGAVVVDMKHFSQFSMDDQTYEAVIGPGTTLGDVDTELYNNGKRAMAHGICPTISTGGHFTMGGLGPTARQWGLALDHVEEVEVVLANSSIVRASNTQNQEVFFAVKGAAASFGIVTEFKVRTQPAPGLAVQYSYTFNIGSSAEKAQFVKDWQSFISAKNLTRQFYTNMVIFDGDIILEGLFFGSQEQYEALGLEDRFVPKNPGNILVLTDWLGMVGHALEDTILRLVGNTPTWFYAKSLGFTPDTLIPASGIDEFFDYIENHKAGTLTWFVTLSLEGGAINDVPEDATAYGHRDVLFWVQIFMASPTGPVSSTTYDFADGLYNVLTKAVPESEGHAYLGCPDPKMADAQQKYWRQNLPRLEELKATLDPKDTFHNPQGILPA,12281.96,37.34,760.03,69.20,93.90,0.29,5.81,0.00,3599.07,0.00,1273.10,73.87,0.00,26.13,
t808232 (protein) MGNTTSIAAGRDCLLSAVGGNHAHVAFQDQLLYQATAVEPYNLNIPVTPAAVTYPQSADEVAAVVKCAADYGYKVQARSGGHSFGNYGLGGEDGAIVVDMKHFDQFSMDESTYTATIGPGITLGDLDTALYNAGHRAMAHGICPTIRTGGHLTIGGLGPTARQWGLALDHVEEVEVVLANSSIVRASDTQNQEILFAVKGAAASFGIVTEFKVRTEEAPGLAVQYSFTFNLGTAAEKAKLVKDWQAFIAQEDLTWKFYSNMNIIDGQIILEGIYFGSKAEYDALGLEEKFPTSEPGTVLVLTDWLGMVGHGLEDVILRLVGNAPTWFYAKSLGFAPRALIPDSAIDDFFEYIHKNNPGTVSWFVTLSLEGGAINKVPEDATAYGHRDVLFWVQIFMINPLGPVSQTIYDFADGLYDVLAKAVPESAGHAYLGCPDPRMPNAQQAYWRNNLPRLEELKGDLDPKDIFHNPQGVMVVS,20281.01,64.49,1367.99,0.00,93.40,0.30,6.30,0.00,2379.23,0.00,1626.74,59.39,0.00,40.61,

# Source: patent publication US20230137139A1, “BIOSYNTHESIS OF CANNABINOIDS AND C[…]” (priority 2020, published 2023)
